Measured values reported in US20260001928A1 (CORTERIA PHARMACEUTICALS, priority 2022, published 2026).
*1 amine or outer side, *2 acyl side, *3 side chain or, on linkers, in order; H or OH if unused. Where no end group is shown, it is not given here. Side-chain parts run from the residue outwards. [ ]: non-standard residue; d: D form. The star is where a group is joined. C18 diacid = O=C(O)CCCCCCCCCCCCCCCCC(=O)*; C16 diacid = O=C(O)CCCCCCCCCCCCCCC(=O)*; γGlu = O=C(O)[C@H](CCC(=O)[*:2])N[*:1]; NMeI = CC[C@H](C)[C@H](NC)C(=O)O; αMeL = CC(C)C[C@](C)(N)C(=O)O; Abu = CC[C@H](N)C(=O)O; Pentanoyl = CCCCC(=O)*; AEEA = NCCOCCOCC(=O)O; Aib = CC(C)(N)C(=O)O

T1: CRF1R receptor (UniProt P34998 24-415, limits assumed)
T1 sequence (looked up): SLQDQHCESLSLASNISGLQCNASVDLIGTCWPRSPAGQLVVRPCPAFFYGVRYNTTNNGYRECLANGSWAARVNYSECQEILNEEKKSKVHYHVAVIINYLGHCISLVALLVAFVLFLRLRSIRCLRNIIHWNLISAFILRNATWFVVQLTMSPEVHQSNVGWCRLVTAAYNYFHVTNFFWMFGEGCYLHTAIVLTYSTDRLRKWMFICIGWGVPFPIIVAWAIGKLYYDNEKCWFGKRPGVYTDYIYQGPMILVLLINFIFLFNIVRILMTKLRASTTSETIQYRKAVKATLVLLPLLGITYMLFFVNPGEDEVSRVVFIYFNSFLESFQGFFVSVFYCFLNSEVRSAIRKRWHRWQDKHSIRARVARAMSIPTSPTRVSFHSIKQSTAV


Assays:
[1] = target: T1, CRF1R receptor; assay: cell-based or functional assay
[2] = target: human corticotropin-releasing factor 2a (CRF2a receptor) (human), Q13324; assay: cell-based or functional assay
human corticotropin-releasing factor 2a (CRF2a receptor) (human), Q13324, sequence (Q13324 20-411): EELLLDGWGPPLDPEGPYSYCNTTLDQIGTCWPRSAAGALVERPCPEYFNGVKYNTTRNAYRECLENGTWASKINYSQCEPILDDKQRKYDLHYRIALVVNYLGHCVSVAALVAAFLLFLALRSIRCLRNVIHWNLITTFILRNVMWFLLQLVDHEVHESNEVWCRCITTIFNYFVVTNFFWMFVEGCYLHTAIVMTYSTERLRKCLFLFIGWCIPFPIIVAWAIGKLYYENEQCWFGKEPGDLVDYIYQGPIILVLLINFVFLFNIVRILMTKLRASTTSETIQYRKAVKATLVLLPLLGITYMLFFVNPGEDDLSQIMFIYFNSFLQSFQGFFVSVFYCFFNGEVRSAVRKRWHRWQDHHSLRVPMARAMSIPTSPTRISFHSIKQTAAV

| Emax (% I) [1] [%] | EC50 [nM] (cAMP) [2] | EC50 [1] [nM] | Binder |
| --- | --- | --- | --- |
| 5 | 1.62 |  | [NMeI]VLSLD[dV]PIK[αMeL]K([AEEA-AEEA-γGlu-C18 diacid])KILLEQEKQKKQREQAETN[Aib]QILAQV-NH2 (N-terminus assumed; SMILES CC[C@H](C)[C@H](NC)C(=O)N[C@H](C(=O)N[C@@H](CC(C)C)C(=O)N[C@@H](CO)C(=O)N[C@@H](CC(C)C)C(=O)N[C@@H](CC(=O)O)C(=O)N[C@@H](C(=O)N1CCC[C@H]1C(=O)N[C@H](C(=O)N[C@@H](CCCCN)C(=O)N[C@@](C)(CC(C)C)C(=O)N[C@@H](CCCCNC(=O)COCCOCCNC(=O)COCCOCCNC(=O)CC[C@H](NC(=O)CCCCCCCCCCCCCCCCC(=O)O)C(=O)O)C(=O)N[C@@H](CCCCN)C(=O)N[C@H](C(=O)N[C@@H](CC(C)C)C(=O)N[C@@H](CC(C)C)C(=O)N[C@@H](CCC(=O)O)C(=O)N[C@@H](CCC(N)=O)C(=O)N[C@@H](CCC(=O)O)C(=O)N[C@@H](CCCCN)C(=O)N[C@@H](CCC(N)=O)C(=O)N[C@@H](CCCCN)C(=O)N[C@@H](CCCCN)C(=O)N[C@@H](CCC(N)=O)C(=O)N[C@@H](CCCNC(=N)N)C(=O)N[C@@H](CCC(=O)O)C(=O)N[C@@H](CCC(N)=O)C(=O)N[C@@H](C)C(=O)N[C@@H](CCC(=O)O)C(=O)N[C@H](C(=O)N[C@@H](CC(N)=O)C(=O)NC(C)(C)C(=O)N[C@@H](CCC(N)=O)C(=O)N[C@H](C(=O)N[C@@H](CC(C)C)C(=O)N[C@@H](C)C(=O)N[C@@H](CCC(N)=O)C(=O)N[C@H](C(N)=O)C(C)C)[C@@H](C)CC)[C@@H](C)O)[C@@H](C)CC)[C@@H](C)CC)C(C)C)C(C)C) [SEQ ID NO 119] |
| 5 | 0.47 |  | Ac-IVLSLD[dV]PIKLK([AEEA-AEEA-γGlu-C18 diacid])KILLEQEKQKKQREQAETN[Abu]QILAQV-NH2 (SMILES CC[C@H](NC(=O)[C@H](CC(N)=O)NC(=O)[C@@H](NC(=O)[C@H](CCC(=O)O)NC(=O)[C@H](C)NC(=O)[C@H](CCC(N)=O)NC(=O)[C@H](CCC(=O)O)NC(=O)[C@H](CCCNC(=N)N)NC(=O)[C@H](CCC(N)=O)NC(=O)[C@H](CCCCN)NC(=O)[C@H](CCCCN)NC(=O)[C@H](CCC(N)=O)NC(=O)[C@H](CCCCN)NC(=O)[C@H](CCC(=O)O)NC(=O)[C@H](CCC(N)=O)NC(=O)[C@H](CCC(=O)O)NC(=O)[C@H](CC(C)C)NC(=O)[C@H](CC(C)C)NC(=O)[C@@H](NC(=O)[C@H](CCCCN)NC(=O)[C@H](CCCCNC(=O)COCCOCCNC(=O)COCCOCCNC(=O)CC[C@H](NC(=O)CCCCCCCCCCCCCCCCC(=O)O)C(=O)O)NC(=O)[C@H](CC(C)C)NC(=O)[C@H](CCCCN)NC(=O)[C@@H](NC(=O)[C@@H]1CCCN1C(=O)[C@H](NC(=O)[C@H](CC(=O)O)NC(=O)[C@H](CC(C)C)NC(=O)[C@H](CO)NC(=O)[C@H](CC(C)C)NC(=O)[C@@H](NC(=O)[C@@H](NC(C)=O)[C@@H](C)CC)C(C)C)C(C)C)[C@@H](C)CC)[C@@H](C)CC)[C@@H](C)O)C(=O)N[C@@H](CCC(N)=O)C(=O)N[C@H](C(=O)N[C@@H](CC(C)C)C(=O)N[C@@H](C)C(=O)N[C@@H](CCC(N)=O)C(=O)N[C@H](C(N)=O)C(C)C)[C@@H](C)CC) [SEQ ID NO 104] |
| 14 | 0.38 |  | Pentanoyl-VLSLD[dV]PIK[αMeL]K([AEEA-AEEA-γGlu-C18 diacid])KILLEQEKQKKQREQAETNVQILAQV-NH2 [SEQ ID NO 124] |
| 8 | 0.41 |  | Ac-IVLSLD[dV]PIKLK([AEEA-AEEA-γGlu-C18 diacid])KILLEQEKQKKQREQAETNAQILAQV-NH2 (SMILES CC[C@H](C)[C@H](NC(C)=O)C(=O)N[C@H](C(=O)N[C@@H](CC(C)C)C(=O)N[C@@H](CO)C(=O)N[C@@H](CC(C)C)C(=O)N[C@@H](CC(=O)O)C(=O)N[C@@H](C(=O)N1CCC[C@H]1C(=O)N[C@H](C(=O)N[C@@H](CCCCN)C(=O)N[C@@H](CC(C)C)C(=O)N[C@@H](CCCCNC(=O)COCCOCCNC(=O)COCCOCCNC(=O)CC[C@H](NC(=O)CCCCCCCCCCCCCCCCC(=O)O)C(=O)O)C(=O)N[C@@H](CCCCN)C(=O)N[C@H](C(=O)N[C@@H](CC(C)C)C(=O)N[C@@H](CC(C)C)C(=O)N[C@@H](CCC(=O)O)C(=O)N[C@@H](CCC(N)=O)C(=O)N[C@@H](CCC(=O)O)C(=O)N[C@@H](CCCCN)C(=O)N[C@@H](CCC(N)=O)C(=O)N[C@@H](CCCCN)C(=O)N[C@@H](CCCCN)C(=O)N[C@@H](CCC(N)=O)C(=O)N[C@@H](CCCNC(=N)N)C(=O)N[C@@H](CCC(=O)O)C(=O)N[C@@H](CCC(N)=O)C(=O)N[C@@H](C)C(=O)N[C@@H](CCC(=O)O)C(=O)N[C@H](C(=O)N[C@@H](CC(N)=O)C(=O)N[C@@H](C)C(=O)N[C@@H](CCC(N)=O)C(=O)N[C@H](C(=O)N[C@@H](CC(C)C)C(=O)N[C@@H](C)C(=O)N[C@@H](CCC(N)=O)C(=O)N[C@H](C(N)=O)C(C)C)[C@@H](C)CC)[C@@H](C)O)[C@@H](C)CC)[C@@H](C)CC)C(C)C)C(C)C) [SEQ ID NO 100] |
| 63 | 0.07 | 95.4 | Ac-IVLSLD[dV]PIKLK([γGlu-C16 diacid])QILLKQERQKKQREQAEKNKQILEQV-NH2 (SMILES CC[C@H](C)[C@H](NC(C)=O)C(=O)N[C@H](C(=O)N[C@@H](CC(C)C)C(=O)N[C@@H](CO)C(=O)N[C@@H](CC(C)C)C(=O)N[C@@H](CC(=O)O)C(=O)N[C@@H](C(=O)N1CCC[C@H]1C(=O)N[C@H](C(=O)N[C@@H](CCCCN)C(=O)N[C@@H](CC(C)C)C(=O)N[C@@H](CCCCNC(=O)CC[C@H](NC(=O)CCCCCCCCCCCCCCC(=O)O)C(=O)O)C(=O)N[C@@H](CCC(N)=O)C(=O)N[C@H](C(=O)N[C@@H](CC(C)C)C(=O)N[C@@H](CC(C)C)C(=O)N[C@@H](CCCCN)C(=O)N[C@@H](CCC(N)=O)C(=O)N[C@@H](CCC(=O)O)C(=O)N[C@@H](CCCNC(=N)N)C(=O)N[C@@H](CCC(N)=O)C(=O)N[C@@H](CCCCN)C(=O)N[C@@H](CCCCN)C(=O)N[C@@H](CCC(N)=O)C(=O)N[C@@H](CCCNC(=N)N)C(=O)N[C@@H](CCC(=O)O)C(=O)N[C@@H](CCC(N)=O)C(=O)N[C@@H](C)C(=O)N[C@@H](CCC(=O)O)C(=O)N[C@@H](CCCCN)C(=O)N[C@@H](CC(N)=O)C(=O)N[C@@H](CCCCN)C(=O)N[C@@H](CCC(N)=O)C(=O)N[C@H](C(=O)N[C@@H](CC(C)C)C(=O)N[C@@H](CCC(=O)O)C(=O)N[C@@H](CCC(N)=O)C(=O)N[C@H](C(N)=O)C(C)C)[C@@H](C)CC)[C@@H](C)CC)[C@@H](C)CC)C(C)C)C(C)C) [SEQ ID NO 2] |
| 5 | 0.96 |  | Ac-VLSLD[dV]PIKLK([γGlu-C16 diacid])KILLEQEKQKKQREQAETN[Aib]QILAQV-NH2 (SMILES CC[C@H](C)[C@H](NC(=O)[C@H](CCC(N)=O)NC(=O)C(C)(C)NC(=O)[C@H](CC(N)=O)NC(=O)[C@@H](NC(=O)[C@H](CCC(=O)O)NC(=O)[C@H](C)NC(=O)[C@H](CCC(N)=O)NC(=O)[C@H](CCC(=O)O)NC(=O)[C@H](CCCNC(=N)N)NC(=O)[C@H](CCC(N)=O)NC(=O)[C@H](CCCCN)NC(=O)[C@H](CCCCN)NC(=O)[C@H](CCC(N)=O)NC(=O)[C@H](CCCCN)NC(=O)[C@H](CCC(=O)O)NC(=O)[C@H](CCC(N)=O)NC(=O)[C@H](CCC(=O)O)NC(=O)[C@H](CC(C)C)NC(=O)[C@H](CC(C)C)NC(=O)[C@@H](NC(=O)[C@H](CCCCN)NC(=O)[C@H](CCCCNC(=O)CC[C@H](NC(=O)CCCCCCCCCCCCCCC(=O)O)C(=O)O)NC(=O)[C@H](CC(C)C)NC(=O)[C@H](CCCCN)NC(=O)[C@@H](NC(=O)[C@@H]1CCCN1C(=O)[C@H](NC(=O)[C@H](CC(=O)O)NC(=O)[C@H](CC(C)C)NC(=O)[C@H](CO)NC(=O)[C@H](CC(C)C)NC(=O)[C@@H](NC(C)=O)C(C)C)C(C)C)[C@@H](C)CC)[C@@H](C)CC)[C@@H](C)O)C(=O)N[C@@H](CC(C)C)C(=O)N[C@@H](C)C(=O)N[C@@H](CCC(N)=O)C(=O)N[C@H](C(N)=O)C(C)C) [SEQ ID NO 45] |
| 14 | 0.7 |  | Pentanoyl-VLSLD[dV]PIK[αMeL]K([AEEA-AEEA-γGlu-C18 diacid])KILLEQEKQKKQREQAETN[Aib]QILAQV-NH2 [SEQ ID NO 123] |
